# Data: the supplement of paper PMC12764529
# ± gives the half width of the 95% confidence interval.
# Assays:
# [1] = folding stability dG unfold (combined trypsin and chymotrypsin); higher = more stable
# In short: (§1)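 Sequencing followed digestion of designed mini-proteins with trypsin and chymotrypsin, each at 11 concentrations in threefold dilutions together with a no-protease condition. The mini-proteins were under 80 residues, had no cysteine, sat in a PA-tagged cDNA display construct, and were kept only if AlphaFold2 dimer inter-PAE was above 15. From the counts, Bayesian fitting gave K50, and unfolding free energy was derived against a sequence-predicted unfolded-state K50 and a shared folded-state K50, per protease or combined.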
# [2] = folding stability dG unfold from chymotrypsin proteolysis; higher = more stable
# In short: as §1
# [3] = folding stability dG unfold from trypsin proteolysis; higher = more stable
# In short: as §1
Sequence,folding stability dG unfold [1] [kcal/mol],folding stability dG unfold [2] [kcal/mol],folding stability dG unfold [3] [kcal/mol]
SAGGSAGPPKPGKIELEFEDPSGGKKYKVDIYIYPNNEVKTKALNPDGTPIPEEEIKKILKKLGLKSAGGSA [r15_872_JUSTAS],1.29 ± 0.26,1.75 ± 0.12,0.37 ± 0.082
SAGGSAGPSVTVDVTFHPGEGTVDVTVTTEGEVVYGKGTFLNPSTVLVEVYFPGSGKVATLTLPVTSAGGSA [r15_837_TrMRF],1.73 ± 0.052,1.61 ± 0.07,1.87 ± 0.066
SAGGSAGRVRVELELEIVVDTPEEARALAEELARRFPSIVRVEVEVRRRPDGRLVVRVRLEVELPPSAGGSA [r15_726_TrROS_Hall],3.31 ± 0.1,3.32 ± 0.077,3.3 ± 0.061
SAGGSAGSFVNLGPEESEGVIVVTYYNEDGTTTTATYTYFPSPKTVSSNGPVTVPPNYKLSVSPLLSAGGSA [r15_198_JUSTAS],0.818 ± 0.067,1.13 ± 0.054,0.165 ± 0.051
SAGGSAGSKPVTINWKITHPDGTPTTIPFSFPTEEQALEEALKAAEALAKEAGYPDFKIEIDEIIPSAGGSA [r15_698_TrMRF],0.358 ± 0.091,0.47 ± 0.12,0.0851 ± 0.091
SAGGSAGSMSPEEVAERIRQEALARDPNWTVEVTPLPGPRPVLRLEIYRVDPNSDSVTPVSTLVVGSAGGSA [r15_682_JUSTAS],0.77 ± 0.086,0.516 ± 0.075,0.857 ± 0.018
SAGGSAIFVVKIEPPNGNPITFMFWFKTPEEAESQVEEIAEQLPPDWKVEVEYIPAEDLKNGKPFFSAGGSA [r15_469_TrROS],2.2 ± 0.068,2.13 ± 0.043,2.13 ± 0.045
SAGGSAIIIPIKSAEEILDQLENNPPGRPIHVWAPDGYWIKIEIDPGKGPKIKITEIYPMPPEEAKSAGGSA [r15_577_TrROS],0.896 ± 0.09,0.984 ± 0.062,0.741 ± 0.026
SAGGSAIKIIPNGDGIYIKIWFNNQPHPIPIESPEDAEEQVKSILDKFQKRNGMDIPEDMKVEIYPSAGGSA [r15_496_TrROS],0.994 ± 0.2,1.12 ± 0.14,0.419 ± 0.054
SAGGSAIKLPPGEEYTIIMRNPQNGRPFKVPIKRVDPGQIQIEIENPKNGEKQKFTIPANDIEIVKSAGGSA [r15_381_TrROS],-0.194 ± 0.16,-0.896 ± 0.8,0.0718 ± 0.074
SAGGSAIKLPPGVKIEYHMHPDGYMTITIEYPNGRPIEIPMRMDPNGPREMTPDQIRDFIKELLKNSAGGSA [r15_780_TrROS],2.4 ± 0.049,2.33 ± 0.026,2.42 ± 0.038
SAGGSAIWIPVDEIRDLLKEFGIDVTVERHPNDGWVEIEIKMRRPNGKKHPIKIWVHPDGYIRIEPSAGGSA [r15_1051_TrROS],4.03 ± 0.18,4.42 ± 0.15,3.23 ± 0.16
SAGGSAKATLPEGVKIETKTFKLDGRKYMPFVFEAPDDDWVWVNEMRMDPNGKMEMETIWIPPDAVSAGGSA [r15_986_TrROS],0.375 ± 0.23,0.384 ± 0.44,0.368 ± 0.32
SAGGSAKEVKIKFTRNPDGTLTMEITFEDGYVIRKTFTVKNGKLTEKVEVFPVKLDPETGKLVLLPSAGGSA [r15_746_TrROS_Hall],2.84 ± 0.087,2.98 ± 0.033,2.52 ± 0.078
SAGGSAKGLKVTFSHPDVEILSVKSYPGLGLAEVEFRYGDKLYRALVRFEPDDGGIAEATVEPVPGSAGGSA [r15_297_TrMRF],2.55 ± 0.079,2.844 ± 0.026,1.58 ± 0.024
SAGGSAKIEIPIMIPMPPGQEFDLKIRIPNLWKIKIERIYVSPDPGWIMFRIEIEPVAPPNDPEQMSAGGSA [r15_994_TrROS],3.34 ± 0.21,3.64 ± 0.071,2.92 ± 0.17
SAGGSAKIKIPKSYTAEILDASYDPETKTVTVKIKLFGKPATATIYPDGTVEIDLPNGKKITIPVGSAGGSA [r15_111_TrMRF],2.27 ± 0.099,2.62 ± 0.04,1.47 ± 0.083
SAGGSAKIPVMFMIESPEQIIELVDEFAPPGHEVKVKIDNVEPFPMREDGEERPYYMFRVTIEFPPSAGGSA [r15_95_TrROS],1.78 ± 0.14,1.84 ± 0.16,1.64 ± 0.07

Sequence,folding stability dG unfold [1] [kcal/mol],folding stability dG unfold [2] [kcal/mol],folding stability dG unfold [3] [kcal/mol]
SAGGSAKITIEYDPETGTITIKVELTNEDNGKKVTKEYEIKVDGKLIRIKIDANTGEIVEIEVLPPSAGGSA [r2_331_TrROS_Hall],3.55 ± 0.15,3.38 ± 0.13,3.52 ± 0.17
SAGGSAKITIHMAPDGMFQIEIKTGGKERTYHVDMPLEQIKDELEDEGLEIKDIEITPFPPDPEDFSAGGSA [r15_576_TrROS],-0.409 ± 0.16,-0.146 ± 0.095,-1.13 ± 0.93
SAGGSAKITLWIWMPPGNPDKMAEEIADYLAERHGWTVKIKDVQIERDPEDDQVWIPVKIEIQPPPSAGGSA [r15_70_TrROS],1.91 ± 0.39,1.39 ± 0.31,1.98 ± 0.14
SAGGSAKKDGTITIKIPVKAPKDKNGKVFKPSAEAIKAKFGELGFDFEIEEIKESETYLEIKIKVKSAGGSA [r15_225_TrMRF],1.53 ± 0.21,1.78 ± 0.093,0.51 ± 0.086
SAGGSAKKEVYKINIKVYNKNGKKVKEIKIELPEELKGKTIEEIAKELAKKLNIEKIEVKIEPVKPSAGGSA [r15_333_TrROS_Hall],2.78 ± 0.21,3.19 ± 0.1,1.61 ± 0.18
SAGGSAKKPEVTVEIEIVLPKEELEELLEALRKLPGLKVEVEEVEVREDGYVRVKLRITLPPGVKPSAGGSA [r15_441_TrROS_Hall],3.19 ± 0.12,3.48 ± 0.046,2.39 ± 0.062
SAGGSAKKPKPGRLFLRYEEPEKGEVVEAVLTVYPNNVVELEVRRPDGKPVPLEKALKLLKELGLLSAGGSA [r15_872_TrMRF],1.86 ± 0.14,2.12 ± 0.1,1.54 ± 0.046
SAGGSAKKTYIIKIPVKEIVVKDKKTGKYKPISAEELAKLLEEKTGLKVEIVEVKDGYIVIKVKEKSAGGSA [r15_55_TrROS_Hall],2.74 ± 0.13,2.96 ± 0.045,2.26 ± 0.091
SAGGSAKLSAEEIAKLLKKLFPEVKEIKVKVEVNGKLYEVKIKVEKVKKKEKKKVEGMSEEEKKKLSAGGSA [r15_156_TrROS_Hall],2.35 ± 0.32,2.33 ± 0.1,2.06 ± 0.19
SAGGSAKLTAEEIKKLPPNARIYFDKETGRVFIEVDGKLVVIEIDKETKEVKVVKVFPSKEALEKASAGGSA [r15_6_TrROS_Hall],1.82 ± 0.12,1.86 ± 0.1,1.57 ± 0.054
SAGGSAKLTIELVISDMSPEDAEIAAENIRIELIKKGIPEEEIENVDIKVIVAPVYLDEDNNLILGSAGGSA [r15_684_TrMRF],0.694 ± 0.058,0.657 ± 0.035,0.533 ± 0.019
SAGGSAKMTLIIKVSPEMTKEELEELARKLAEELNVKVEIEYDEETGLATVTIEKDGKKIEIIVERSAGGSA [r15_168_TrROS_Hall],2.49 ± 0.12,2.74 ± 0.094,1.98 ± 0.083
SAGGSAKMVLVKIKVEGMSVEEVKKLLEEAGAKVVKIDEEKKVIIVEVSPEKAEELAKKLGFEVEVSAGGSA [r15_731_TrROS_Hall],3.45 ± 0.086,3.42 ± 0.11,3.36 ± 0.14
SAGGSAKPEPIKIEIGPGGNRFKATFPNGDEADVDVVKDGDKTYLLITVTSPDGKPRPFKIPLEKLSAGGSA [r15_941_TrMRF],2.1 ± 0.05,2.24 ± 0.023,1.76 ± 0.042
SAGGSAKRYFIMIDIRYPGDGKEIYPLVIPIPPGEPISIEDILDEIGFPPENADNVDIEIHTFRAKSAGGSA [r15_665_TrROS],1.51 ± 0.22,1.57 ± 0.14,1.56 ± 0.078
SAGGSAKSIKAEELAKEIADLMQERNPNWRVEIEPQPGPGPMITVKIYHRDPNNGDQQPINTFTIRSAGGSA [r15_682_TrROS],0.442 ± 0.15,0.188 ± 0.15,0.502 ± 0.099
SAGGSAKTIKIWIPVKGMTPEMLEEIARDILEELGMKVDIEPHPGDGYIEVTFKLPGKDIEIIIPWSAGGSA [r15_168_TrROS],2.61 ± 0.16,3.04 ± 0.1,2.04 ± 0.062
